Experimental data taken from patent US20180214548A1.

Molecular target: NC-Fc
Experiment: ELISA, coated protein 1 ug/mL; antibody concentration not stated

B1: chimeric anti-PD-1 antibody 76G5B3 (antibody, V domains shown)
VH: QVQLVESGGGVVQPGRSLRLSCAASGFTFSDYGFHWVRQAPGKGLEWVAVIWYDGSNEYYTDSVKGRFTISRDNSKNTLYLQMNSLRAEDTAMYFCVVNPFDYWGQGTLVTVSS
VL: DIQMTQSPSSLSAFVGDRVTITCRASQGINHYLAWYQQKPGKAPNLLILAASTLLSGVPSRFGGRGSGTDFTLIISSLQPEDVATYYCQKYDSAPYTFGQGTKLEIK
B1 was tested, and the OD450 nm was 0.268.

B2: chimeric anti-PD-1 antibody 21G8F11 (antibody, V domains shown)
VH: EVQLLESGGGLAQPGGSLRLSCAASGFSFNTYLMHWVRQAPGKGLEWVSAISGGGGNTYYADSVKGRFTISRDNSKNTLYLQMNSLRAEDTAVYYCAKENRIPVAPFDYWGQGTLVTVSS
VL: DIQMTQSPSTLSASVGDRVTITCRASQSISTWLAWYQQKPGKAPKLLIYKASSLESGVPSRFSGSGSGTEFTLTISSLQPDDLATYYCQQYNSFSWTFGQGTKVEIK
In the case of B2, the OD450 nm is reported as 0.161.
